Reference: publication PMC5996891, “Staphylococcus aureus Phenol-Soluble Modulins α1–α3 Act as Novel Toll-Like Receptor (TLR) 4 Antagonists to Inhibit HMGB1/TLR4/NF-κB Signaling Pathway” (Frontiers in Immunology, 2018)

B1: recombinant disulfide HMGB1 protein (natural protein)
chain: MGKGDPKKPRGKMSSYAFFVQTCREEHKKKHPDASVNFSEFSKKCSERWKTMSAKEKGKFEDMAKADKARYEREMKTYIPPKGETKKKFKDPNAPKRPPSAFFLFCSEYRPKIKGEHPGLSIGDVAKKLGEMWNNTAADDKQPYEKKAAKLKEKYEKDIAAYRAKGKPDAAKKGVVKAEKSKKKKEEEEDEEDEEDEEEEEDEEDEDEEEDDDDE
modifications: disulfide bond between cysteines 23 and 45; reduced thiol on cysteine 106
notes: high mobility group box-1 protein; also called high mobility group box-1 protein; source: recombinant, provided by Kevin Tracey (The Feinstein Institute for Medical Research)

Each molecule was assayed against recombinant human TLR4 protein (ectodomain, Glu24-Lys631) (human) (UniProt O00206) (assay: SPR; Biacore T200; TLR4 immobilised on a CM5 chip by amine coupling; HMGB1 or synthetic PSMs in 10 mM acetate buffer (pH 5.2) run over at gradient concentrations; 25°C, 30 µL/min; apparent KD). Settings: not given.
recombinant human TLR4 protein (ectodomain, Glu24-Lys631) (human), sequence (O00206 24-631): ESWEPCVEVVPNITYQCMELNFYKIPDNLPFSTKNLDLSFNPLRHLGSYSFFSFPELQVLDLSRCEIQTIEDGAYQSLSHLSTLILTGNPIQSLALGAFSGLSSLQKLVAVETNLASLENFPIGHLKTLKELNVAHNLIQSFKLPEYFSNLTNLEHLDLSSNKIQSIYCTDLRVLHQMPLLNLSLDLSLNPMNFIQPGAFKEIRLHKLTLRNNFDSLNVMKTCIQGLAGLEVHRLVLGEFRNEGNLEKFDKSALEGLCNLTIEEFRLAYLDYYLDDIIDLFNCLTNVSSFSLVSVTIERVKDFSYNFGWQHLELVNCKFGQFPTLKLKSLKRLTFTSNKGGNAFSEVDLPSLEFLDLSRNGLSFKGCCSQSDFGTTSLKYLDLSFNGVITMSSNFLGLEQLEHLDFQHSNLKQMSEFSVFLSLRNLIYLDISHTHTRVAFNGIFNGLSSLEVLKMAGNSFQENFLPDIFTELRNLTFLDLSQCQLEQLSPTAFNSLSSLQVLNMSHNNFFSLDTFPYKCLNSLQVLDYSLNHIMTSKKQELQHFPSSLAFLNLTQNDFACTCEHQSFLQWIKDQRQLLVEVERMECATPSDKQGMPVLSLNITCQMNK

“Staphylococcus aureus phenol-soluble modulin α1 (peptide)” and “Staphylococcus aureus phenol-soluble modulin α2 (peptide)” are within 1.5-fold of each other in Kd: 3.81 µM for the first, 3.24 µM for the second.

“Staphylococcus aureus phenol-soluble modulin α3 (peptide)” and “Staphylococcus aureus phenol-soluble modulin β1 (peptide)” are within 1.5-fold of each other in Kd: 3 µM for the first, 3.79 µM for the second.

Molecule “Staphylococcus aureus phenol-soluble modulin β2 (peptide)” has a Kd of 7.78 µM.

What follows are molecules tested against T1, recombinant human TLR4 protein (ectodomain, Glu24-Lys631) (human, UniProt O00206 24-631) in the same assay as above. Settings: both partners purified.
T1 construct: human toll-like receptor 4, Glu24-Lys631, the ectodomain with no transmembrane domain; followed by a C-terminal Ser and 10-His tag; also called hTLR4; toll-like receptor 4; source: bought: R&D Systems (Catalog Number 1478-TR); not shown: His10 (after a Ser), C-terminal, kept
T1 sequence (O00206 24-631): as above

In the case of B1, the Kd is reported as 9.2 µM.
